Measured values published in publication doi:10.1101/2021.05.10.443400 (bioRxiv, 2021).
One block for each binder: values may come before it.

Tests used:
[1] = target: T1, Human MutSα (MSH2-MSH6 complex), purified (human, UniProt P43246 1-934; P52701 1-1360); test: co-IP
[2] = target: T1, Human MutSα (MSH2-MSH6 complex), …; test: pull-down

T1 sequence (P43246 whole entry, chain 1 of 2): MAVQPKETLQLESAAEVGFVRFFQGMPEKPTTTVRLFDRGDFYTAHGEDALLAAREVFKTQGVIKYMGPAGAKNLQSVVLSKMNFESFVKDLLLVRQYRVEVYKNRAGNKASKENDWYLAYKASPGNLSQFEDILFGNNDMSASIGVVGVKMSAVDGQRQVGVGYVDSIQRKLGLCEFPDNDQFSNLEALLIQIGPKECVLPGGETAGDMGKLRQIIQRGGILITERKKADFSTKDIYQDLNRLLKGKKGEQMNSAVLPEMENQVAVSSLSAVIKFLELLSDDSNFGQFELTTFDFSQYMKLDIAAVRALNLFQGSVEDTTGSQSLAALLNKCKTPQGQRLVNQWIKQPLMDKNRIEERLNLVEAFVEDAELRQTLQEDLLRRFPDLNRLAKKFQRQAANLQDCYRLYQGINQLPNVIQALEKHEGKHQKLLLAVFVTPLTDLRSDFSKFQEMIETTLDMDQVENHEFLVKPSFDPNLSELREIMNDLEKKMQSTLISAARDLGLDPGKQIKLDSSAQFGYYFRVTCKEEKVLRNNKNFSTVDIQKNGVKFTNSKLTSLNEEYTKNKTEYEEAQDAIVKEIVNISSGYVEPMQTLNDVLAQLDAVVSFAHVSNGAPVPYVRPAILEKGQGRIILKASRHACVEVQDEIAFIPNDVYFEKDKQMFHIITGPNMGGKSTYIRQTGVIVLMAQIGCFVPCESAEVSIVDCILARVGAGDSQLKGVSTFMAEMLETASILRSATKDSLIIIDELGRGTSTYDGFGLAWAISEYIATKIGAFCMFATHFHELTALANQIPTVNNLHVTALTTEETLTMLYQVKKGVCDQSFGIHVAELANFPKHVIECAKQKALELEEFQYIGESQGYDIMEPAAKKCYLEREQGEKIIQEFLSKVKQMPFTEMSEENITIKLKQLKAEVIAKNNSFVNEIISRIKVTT
T1 sequence (P52701 whole entry, chain 2 of 2): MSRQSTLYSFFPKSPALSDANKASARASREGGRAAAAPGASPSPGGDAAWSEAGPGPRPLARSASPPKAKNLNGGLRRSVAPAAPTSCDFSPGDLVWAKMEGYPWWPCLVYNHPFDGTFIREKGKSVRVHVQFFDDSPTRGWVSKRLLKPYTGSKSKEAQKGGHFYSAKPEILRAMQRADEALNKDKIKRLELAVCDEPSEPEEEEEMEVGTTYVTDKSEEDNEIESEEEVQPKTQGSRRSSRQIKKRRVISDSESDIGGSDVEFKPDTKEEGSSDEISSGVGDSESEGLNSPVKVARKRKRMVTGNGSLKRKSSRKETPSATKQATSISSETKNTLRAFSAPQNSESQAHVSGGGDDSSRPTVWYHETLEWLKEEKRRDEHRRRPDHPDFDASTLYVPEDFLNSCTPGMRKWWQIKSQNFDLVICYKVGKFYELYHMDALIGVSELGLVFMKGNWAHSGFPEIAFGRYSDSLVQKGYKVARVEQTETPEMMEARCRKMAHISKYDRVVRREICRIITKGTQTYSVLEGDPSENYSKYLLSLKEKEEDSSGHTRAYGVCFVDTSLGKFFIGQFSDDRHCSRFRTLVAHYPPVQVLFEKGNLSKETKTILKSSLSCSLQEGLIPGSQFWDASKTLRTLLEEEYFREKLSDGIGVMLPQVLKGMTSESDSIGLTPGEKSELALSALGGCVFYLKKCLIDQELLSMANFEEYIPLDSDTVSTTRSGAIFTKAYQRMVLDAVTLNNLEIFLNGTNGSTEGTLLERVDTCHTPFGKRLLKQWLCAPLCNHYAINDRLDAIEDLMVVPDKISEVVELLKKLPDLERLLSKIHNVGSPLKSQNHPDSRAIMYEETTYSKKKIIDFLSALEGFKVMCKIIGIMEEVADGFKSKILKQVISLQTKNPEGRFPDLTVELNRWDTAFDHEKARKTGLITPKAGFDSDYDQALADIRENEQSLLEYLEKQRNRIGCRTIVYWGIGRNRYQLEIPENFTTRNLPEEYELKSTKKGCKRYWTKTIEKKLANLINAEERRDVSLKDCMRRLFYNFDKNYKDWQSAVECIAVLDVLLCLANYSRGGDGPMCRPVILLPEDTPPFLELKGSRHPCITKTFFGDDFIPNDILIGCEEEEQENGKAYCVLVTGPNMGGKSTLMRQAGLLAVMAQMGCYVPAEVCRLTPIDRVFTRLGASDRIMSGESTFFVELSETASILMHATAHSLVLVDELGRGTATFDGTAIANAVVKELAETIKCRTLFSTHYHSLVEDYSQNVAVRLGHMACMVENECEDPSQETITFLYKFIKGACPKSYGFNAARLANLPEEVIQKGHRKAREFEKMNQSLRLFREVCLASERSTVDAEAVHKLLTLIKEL

binding result [1]: binds
B1: Human Flag-MutLα (MLH1-PMS2 complex), purified (complex)
chain 1: MSFVAGVIRRLDETVVNRIAAGEVIQRPANAIKEMIENCLDAKSTSIQVIVKEGGLKLIQIQDNGTGIRKEDLDIVCERFTTSKLQSFEDLASISTYGFRGEALASISHVAHVTITTKTADGKCAYRASYSDGKLKAPPKPCAGNQGTQITVEDLFYNIATRRKALKNPSEEYGKILEVVGRYSVHNAGISFSVKKQGETVADVRTLPNASTVDNIRSIFGNAVSRELIEIGCEDKTLAFKMNGYISNANYSVKKCIFLLFINHRLVESTSLRKAIETVYAAYLPKNTHPFLYLSLEISPQNVDVNVHPTKHEVHFLHEESILERVQQHIESKLLGSNSSRMYFTQTLLPGLAGPSGEMVKSTTSLTSSSTSGSSDKVYAHQMVRTDSREQKLDAFLQPLSKPLSSQPQAIVTEDKTDISSGRARQQDEEMLELPAPAEVAAKNQSLEGDTTKGTSEMSEKRGPTSSNPRKRHREDSDVEMVEDDSRKEMTAACTPRRRIINLTSVLSLQEEINEQGHEVLREMLHNHSFVGCVNPQWALAQHQTKLYLLNTTKLSEELFYQILIYDFANFGVLRLSEPAPLFDLAMLALDSPESGWTEEDGPKEGLAEYIVEFLKKKAEMLADYFSLEIDEEGNLIGLPLLIDNYVPPLEGLPIFILRLATEVNWDEEKECFESLSKECAMFYSIRKQYISEESTLSGQQSEVPGSIPNSWKWTVEHIVYKALRSHILPPKHFTEDGNILQLANLPDLYKVFERC
chain 2: MERAESSSTEPAKAIKPIDRKSVHQICSGQVVLSLSTAVKELVENSLDAGATNIDLKLKDYGVDLIEVSDNGCGVEEENFEGLTLKHHTSKIQEFADLTQVETFGFRGEALSSLCALSDVTISTCHASAKVGTRLMFDHNGKIIQKTPYPRPRGTTVSVQQLFSTLPVRHKEFQRNIKKEYAKMVQVLHAYCIISAGIRVSCTNQLGQGKRQPVVCTGGSPSIKENIGSVFGQKQLQSLIPFVQLPPSDSVCEEYGLSCSDALHNLFYISGFISQCTHGVGRSSTDRQFFFINRRPCDPAKVCRLVNEVYHMYNRHQYPFVVLNISVDSECVDINVTPDKRQILLQEEKLLLAVLKTSLIGMFDSDVNKLNVSQQPLLDVEGNLIKMHAADLEKPMVEKQDQSPSLRTGEEKKDVSISRLREAFSLRHTTENKPHSPKTPEPRRSPLGQKRGMLSSSTSGAISDKGVLRPQKEAVSSSHGPSDPTDRAEVEKDSGHGSTSVDSEGFSIPDTGSHCSSEYAASSPGDRGSQEHVDSQEKAPKTDDSFSDVDCHSNQEDTGCKFRVLPQPTNLATPNTKRFKKEEILSSSDICQKLVNTQDMSASQVDVAVKINKKVVPLDFSMSSLAKRIKQLHHEAQQSEGEQNYRKFRAKICPGENQAAEDELRKEISKTMFAEMEIIGQFNLGFIITKLNEDIFIVDQHATDEKYNFEMLQQHTVLQGQRLIAPQTLNLTAVNEAVLIENLEIFRKNGFDFVIDENAPVTERAKLISLPTSKNWTFGPQDVDELIFMLSDSPGVMCRPSRVKQMFASRACRKSVMIGTALNTSEMKKLITHMGEMDHPWNCPHGRPTMRHIANLGVISQN

binding result [2]: binds
B2: Human GST-Flag-Orc6, full length (natural protein, UniProt Q9Y5N6 1-252, looked up)
chain: MGSELIGRLAPRLGLAEPDMLRKAEEYLRLSRVKCVGLSARTTETSSAVMCLDLAASWMKCPLDRAYLIKLSGLNKETYQSCLKSFECLLGLNSNIGIRDLAVQFSCIEAVNMASKILKSYESSLPQTQQVDLDLSRPLFTSAALLSACKILKLKVDKNKMVATSGVKKAIFDRLCKQLEKIGQQVDREPGDVATPPRKRKKIVVEAPAKEMEKVEEMPHKPQKDEDLTQDYEEWKRKILENAASAQKATAE

binding result [2]: binds
B3: GST-Flag-Orc6 middle TFIIB (TFIIB-B) domain (94-187) (domain or fragment, human, UniProt Q9Y5N6 94-187, looked up)
chain: SNIGIRDLAVQFSCIEAVNMASKILKSYESSLPQTQQVDLDLSRPLFTSAALLSACKILKLKVDKNKMVATSGVKKAIFDRLCKQLEKIGQQVD
